Tested on: SMN
Experiment: SMN levels in mouse (ES-cell derived) motor neurons
Type: cell-based
Conditions: mouse motor neurons
Experimental: Mouse HB9-GFP derived SMN deficient motor neuron cells were incubated for 2 days with compounds from libraries and collections.
Motor neurons were produced from mouse ES-cells expressing cherry fluorescent protein (CFP) under the control of the motor neuron-selective Hb9 promoter, as previously described (Wichterle et al., 2002).
GFP expressing motor neurons were derived from mouse ES cells as described below. After growing for approximately 1 week, motor neurons were treated with allsterpaullone. Two days after treatment with allsterpaullone, cells were fixed and stained with SMN antibody or GFP antibody.
mES cells were differentiated into motor neurons according to methods adapted from Wichterle et. al., Cell (2002), 110:385-397. Briefly, mES cells were grown to 70-80% confluence in 10-cm plates (Falcon) in ES cell medium. To form embryoid bodies, cells were washed once with PBS to eliminate mES medium and then incubated with 1 ml of 0.25% trypsin (GIBCO) for 5-10 min at 21-25° C. (RT). Cells were then resuspended in 10 ml of DM1 medium (DMEM-F12, GIBCO), 10% knockout serum (GIBCO), penicillin, streptomycin, glutamine (GIBCO) and 2-mercaptoethanol (GIBCO), counted and plated at a concentration of 200,000 cells per ml in Petri dishes (Falcon). […] The cells were counted and plated on poly-ornithine coated 96-well plates (VWR).

B1: BMP4: bone morphogenetic protein 4, BMP/TGFβ ligand (protein, UniProt P12644 293-408, looked up)
Bone morphogenetic protein 4: SPKHHSQRARKKNKNCRRHSLYVDFSDVGWNDWIVAPPGYQAFYCHGDCPFPLADHLNSTNHAIVQTLVNSVNSSIPKACCVPTELSAISMLYLDEYDKVVLKNYQEMVVEGCGCR
  SMN levels in motor neurons (in words): increase SMN levels

— patent publication US20120010178A1, “METHODS AND COMPOUNDS FOR TREATMENT OF NEURODEGENERATIVE DISORDERS” (PRESIDENT AND FELLOWS OF HARVARD COLLEGE, priority 2008, published 2012)
